In patent publication US20150141489:

Target: recombinant GST-S6 (UniProt P62753)

T7-tagged mouse S6K1 Isoform-2 (Iso-2)
in vitro kinase assay (phospho-S6 S240-244 blot): have no kinase activity
